# In patent US20170190753A1 (LABORATOIRE FRANCAIS DU FRACTIONNEMENT ET DES …, published 2017):
# Biological target: C3 convertase complex (UniProt P01024 23-1663; P00751 260-764)
# Test: cell-based or functional assay
# Wherever C3 convertase activity % of the control is given: test concentration or dose not given here.
# C3 convertase complex, sequence (P01024 23-1663, chain 1 of 2): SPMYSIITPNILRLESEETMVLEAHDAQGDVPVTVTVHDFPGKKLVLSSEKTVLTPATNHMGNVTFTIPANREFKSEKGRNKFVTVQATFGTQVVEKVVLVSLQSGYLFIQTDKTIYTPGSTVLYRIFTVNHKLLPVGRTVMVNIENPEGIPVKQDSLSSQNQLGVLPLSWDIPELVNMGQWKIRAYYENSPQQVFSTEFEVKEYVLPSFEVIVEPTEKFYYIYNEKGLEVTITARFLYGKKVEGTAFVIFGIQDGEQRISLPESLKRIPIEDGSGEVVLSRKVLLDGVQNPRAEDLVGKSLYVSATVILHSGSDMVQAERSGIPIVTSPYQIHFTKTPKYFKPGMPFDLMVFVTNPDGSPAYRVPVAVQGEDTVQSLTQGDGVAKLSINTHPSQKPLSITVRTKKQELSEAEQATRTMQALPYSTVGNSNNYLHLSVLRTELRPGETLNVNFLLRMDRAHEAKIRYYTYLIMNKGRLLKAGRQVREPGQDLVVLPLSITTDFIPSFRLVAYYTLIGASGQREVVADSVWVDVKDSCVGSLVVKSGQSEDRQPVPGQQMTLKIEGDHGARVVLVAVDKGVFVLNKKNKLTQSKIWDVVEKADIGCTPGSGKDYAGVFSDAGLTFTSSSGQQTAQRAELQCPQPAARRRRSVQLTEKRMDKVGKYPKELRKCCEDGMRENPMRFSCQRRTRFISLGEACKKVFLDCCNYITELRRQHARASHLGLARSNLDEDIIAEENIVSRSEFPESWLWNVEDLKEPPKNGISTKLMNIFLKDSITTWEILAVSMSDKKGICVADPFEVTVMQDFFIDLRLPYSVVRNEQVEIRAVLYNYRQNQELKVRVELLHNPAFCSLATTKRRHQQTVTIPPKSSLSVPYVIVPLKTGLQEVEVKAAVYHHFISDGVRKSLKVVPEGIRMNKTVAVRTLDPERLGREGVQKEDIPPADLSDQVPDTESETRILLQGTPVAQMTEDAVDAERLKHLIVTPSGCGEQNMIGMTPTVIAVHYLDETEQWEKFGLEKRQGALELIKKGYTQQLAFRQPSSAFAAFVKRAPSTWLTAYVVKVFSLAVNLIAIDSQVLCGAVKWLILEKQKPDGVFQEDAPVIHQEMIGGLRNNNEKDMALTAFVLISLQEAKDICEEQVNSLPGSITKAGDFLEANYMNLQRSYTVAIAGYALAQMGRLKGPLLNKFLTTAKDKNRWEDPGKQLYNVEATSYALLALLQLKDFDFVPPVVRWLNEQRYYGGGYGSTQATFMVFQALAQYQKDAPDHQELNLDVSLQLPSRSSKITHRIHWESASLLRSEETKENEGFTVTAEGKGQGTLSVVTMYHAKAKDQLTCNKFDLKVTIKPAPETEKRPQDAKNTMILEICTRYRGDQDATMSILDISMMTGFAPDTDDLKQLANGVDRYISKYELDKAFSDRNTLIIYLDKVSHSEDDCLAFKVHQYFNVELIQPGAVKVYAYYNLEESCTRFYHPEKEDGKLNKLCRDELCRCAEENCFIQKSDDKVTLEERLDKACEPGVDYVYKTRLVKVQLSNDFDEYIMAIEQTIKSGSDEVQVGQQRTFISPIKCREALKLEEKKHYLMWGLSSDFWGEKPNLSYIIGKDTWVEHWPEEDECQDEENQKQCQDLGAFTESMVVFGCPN
# C3 convertase complex, sequence (P00751 260-764, chain 2 of 2): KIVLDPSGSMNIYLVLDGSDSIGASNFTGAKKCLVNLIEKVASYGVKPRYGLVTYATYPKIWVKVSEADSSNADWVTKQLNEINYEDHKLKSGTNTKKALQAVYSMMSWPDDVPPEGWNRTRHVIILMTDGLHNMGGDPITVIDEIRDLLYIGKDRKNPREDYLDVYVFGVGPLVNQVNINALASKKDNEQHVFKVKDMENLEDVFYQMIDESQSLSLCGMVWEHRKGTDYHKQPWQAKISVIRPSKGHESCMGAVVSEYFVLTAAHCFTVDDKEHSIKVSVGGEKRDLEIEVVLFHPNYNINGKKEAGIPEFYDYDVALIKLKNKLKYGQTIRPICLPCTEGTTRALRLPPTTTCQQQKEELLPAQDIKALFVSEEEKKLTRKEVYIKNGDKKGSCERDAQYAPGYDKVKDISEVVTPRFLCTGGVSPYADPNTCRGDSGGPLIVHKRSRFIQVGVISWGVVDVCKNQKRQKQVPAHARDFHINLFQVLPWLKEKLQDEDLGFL
Binder,C3 convertase activity % of the control,C3 convertase activity IC50 [µg/mL]
pCEP4-1NT8-14CT20 (other) EDCNELPPRRNTEILTGSWSDQTYPEGTQAIYKCRPGYRSLGNVIMVCRKGEWVALNPLRKCQKRPCGHPGDTPFGTFTLTGGNVFEYGVKAVYTCNEGYQLLGEINYRECDTDGWTNDIPICEVVKCLPVTAPENGKIVSSAMEPDREYHFGQAVRFVCNSGYKIEGDEEMHCSDDGFWSKEKPKCVEISCKSPDVINGSPISQKIIYKENERFQYKCNMGYEYSERGDAVCTESGWRPLPSCEEKSCDNPYIPNGDYSPLRIKHRTGDEITYQCRNGFYPATRGNTAKCTSTGWIPAPRCTLKPCDYPDIKHGGLYHENMRRPYFPVAVGKYYSYYCDEHFETPSGSYWDHIHCTQDGWSPAVPCLRKCYFPYLENGYNQNHGRKFVQGKSIDVACHPGYALPKAQTTVTCMENGWSPTPRCIRVKTCSKSSIDIENGFISESQYTYALKEKAKYQCKLGYVTADGETSGSITCGKDGWSAQPTCIKSGASGCPPPPQIPNSHNMTTTLNYRDGEKVSVLCQENYLIQEGEEITCKDGRWQSIPLCVEKIPCSQPPQIEHGTINSSRSSQESYAHGTKLSYTCEGGFRISEENETTCYMGKWSSPPQCEGLPCKSPPEISHGVVAHMSDSYQYGEEVTYKCFEGFGIDGPAIAKCLGEKWSHPPSCIKTDCLSLPSFENAIPMGEKKDVYKAGEQVTYTCATYYKMDGASNVTCINSRWTGRPTCRDTSCVNPPTVQNAYIVSRQMSKYPSGERVRYQCRSPYEMFGDEEVMCLNGNWTEPPQCKDSTGKCGPPPPIDNGDITSFPLSVYAPASSVEYQCQNLYQLEGNKRITCRNGQWSEPPKCLHPCVISREIMENYNIALRWTAKQKLYSRTGESVEFVCKRGYRLSSRSHTLRTTCWDGKLEYPTCAKRGGSGHHHHHH,61 % of the control,0.645
pCEP4-1NT10-11CT20 (other) EDCNELPPRRNTEILTGSWSDQTYPEGTQAIYKCRPGYRSLGNVIMVCRKGEWVALNPLRKCQKRPCGHPGDTPFGTFTLTGGNVFEYGVKAVYTCNEGYQLLGEINYRECDTDGWTNDIPICEVVKCLPVTAPENGKIVSSAMEPDREYHFGQAVRFVCNSGYKIEGDEEMHCSDDGFWSKEKPKCVEISCKSPDVINGSPISQKIIYKENERFQYKCNMGYEYSERGDAVCTESGWRPLPSCEEKSCDNPYIPNGDYSPLRIKHRTGDEITYQCRNGFYPATRGNTAKCTSTGWIPAPRCTLKPCDYPDIKHGGLYHENMRRPYFPVAVGKYYSYYCDEHFETPSGSYWDHIHCTQDGWSPAVPCLRKCYFPYLENGYNQNHGRKFVQGKSIDVACHPGYALPKAQTTVTCMENGWSPTPRCIRVKTCSKSSIDIENGFISESQYTYALKEKAKYQCKLGYVTADGETSGSITCGKDGWSAQPTCIKSCDIPVFMNARTKNDFTWFKLNDTLDYECHDGYESNTGSTTGSIVCGYNGWSDLPICYERECELPKIDVHLVPDRKKDQYKVGEVLKFSCKPGFTIVGPNSVQCYHFGLSPDLPICKEQVQSGASGCGPPPELLNGNVKEKTKEEYGHSEVVEYYCNPRFLMKGPNKIQCVDGEWTTLPVCIVEESTCGDIPELEHGWAQLSSPPYYYGDSVEFNCSESFTMIGHRSITCIHGVWTQLPQCVAIDKLKKCKSSNLIILEEHLKNKKEFDHNSNIRYRCRGKEGWIHTVCINGRWDPEVNCSMAQIQLCPPPPQIPNSHNMTTTLNYRDGEKVSVLCQENYLIQEGEEITCKDGRWQSIPLCVEKIPCSQPPQIEHGTINSSRSSQESYAHGTKLSYTCEGGFRISEENETTCYMGKWSSPPQCEGLPCKSPPEISHGVVAHMSDSYQYGEEVTYKCFEGFGIDGPAIAKCLGEKWSHPPSCIKTDCLSLPSFENAIPMGEKKDVYKAGEQVTYTCATYYKMDGASNVTCINSRWTGRPTCRDTSCVNPPTVQNAYIVSRQMSKYPSGERVRYQCRSPYEMFGDEEVMCLNGNWTEPPQCKDSTGKCGPPPPIDNGDITSFPLSVYAPASSVEYQCQNLYQLEGNKRITCRNGQWSEPPKCLHPCVISREIMENYNIALRWTAKQKLYSRTGESVEFVCKRGYRLSSRSHTLRTTCWDGKLEYPTCAKRGGSGHHHHHH,58 % of the control,0.612
pCEP4-1NT7-10CT20 (other) EDCNELPPRRNTEILTGSWSDQTYPEGTQAIYKCRPGYRSLGNVIMVCRKGEWVALNPLRKCQKRPCGHPGDTPFGTFTLTGGNVFEYGVKAVYTCNEGYQLLGEINYRECDTDGWTNDIPICEVVKCLPVTAPENGKIVSSAMEPDREYHFGQAVRFVCNSGYKIEGDEEMHCSDDGFWSKEKPKCVEISCKSPDVINGSPISQKIIYKENERFQYKCNMGYEYSERGDAVCTESGWRPLPSCEEKSCDNPYIPNGDYSPLRIKHRTGDEITYQCRNGFYPATRGNTAKCTSTGWIPAPRCTLKPCDYPDIKHGGLYHENMRRPYFPVAVGKYYSYYCDEHFETPSGSYWDHIHCTQDGWSPAVPCLRKCYFPYLENGYNQNYGRKFVQGKSIDVACHPGYALPKAQTTVTCMENGWSPTPRCIRVKTGASGCELPKIDVHLVPDRKKDQYKVGEVLKFSCKPGFTIVGPNSVQCYHFGLSPDLPICKEQVQSCGPPPELLNGNVKEKTKEEYGHSEVVEYYCNPRFLMKGPNKIQCVDGEWTTLPVCIVEESTCGDIPELEHGWAQLSSPPYYYGDSVEFNCSESFTMIGHRSITCIHGVWTQLPQCVAIDKLKKCKSSNLIILEEHLKNKKEFDHNSNIRYRCRGKEGWIHTVCINGRWDPEVNCSMAQIQLCPPPPQIPNSHNMTTTLNYRDGEKVSVLCQENYLIQEGEEITCKDGRWQSIPLCVEKIPCSQPPQIEHGTINSSRSSQESYAHGTKLSYTCEGGFRISEENETTCYMGKWSSPPQCEGLPCKSPPEISHGVVAHMSDSYQYGEEVTYKCFEGFGIDGPAIAKCLGEKWSHPPSCIKTDCLSLPSFENAIPMGEKKDVYKAGEQVTYTCATYYKMDGASNVTCINSRWTGRPTCRDTSCVNPPTVQNAYIVSRQMSKYPSGERVRYQCRSPYEMFGDEEVMCLNGNWTEPPQCKDSTGKCGPPPPIDNGDITSFPLSVYAPASSVEYQCQNLYQLEGNKRITCRNGQWSEPPKCLHPCVISREIMENYNIALRWTAKQKLYSRTGESVEFVCKRGYRLSSRSHTLRTTCWDGKLEYPTCAKRGGSGHHHHHH,59 % of the control,0.602
pCEP4-1NT8-15CT20 (other) EDCNELPPRRNTEILTGSWSDQTYPEGTQAIYKCRPGYRSLGNVIMVCRKGEWVALNPLRKCQKRPCGHPGDTPFGTFTLTGGNVFEYGVKAVYTCNEGYQLLGEINYRECDTDGWTNDIPICEVVKCLPVTAPENGKIVSSAMEPDREYHFGQAVRFVCNSGYKIEGDEEMHCSDDGFWSKEKPKCVEISCKSPDVINGSPISQKIIYKENERFQYKCNMGYEYSERGDAVCTESGWRPLPSCEEKSCDNPYIPNGDYSPLRIKHRTGDEITYQCRNGFYPATRGNTAKCTSTGWIPAPRCTLKPCDYPDIKHGGLYHENMRRPYFPVAVGKYYSYYCDEHFETPSGSYWDHIHCTQDGWSPAVPCLRKCYFPYLENGYNQNYGRKFVQGKSIDVACHPGYALPKAQTTVTCMENGWSPTPRCIRVKTCSKSSIDIENGFISESQYTYALKEKAKYQCKLGYVTADGETSGSITCGKDGWSAQPTCIKSGASGCSQPPQIEHGTINSSRSSQESYAHGTKLSYTCEGGFRISEENETTCYMGKWSSPPQCEGLPCKSPPEISHGVVAHMSDSYQYGEEVTYKCFEGFGIDGPAIAKCLGEKWSHPPSCIKTDCLSLPSFENAIPMGEKKDVYKAGEQVTYTCATYYKMDGASNVTCINSRWTGRPTCRDTSCVNPPTVQNAYIVSRQMSKYPSGERVRYQCRSPYEMFGDEEVMCLNGNWTEPPQCKDSTGKCGPPPPIDNGDITSFPLSVYAPASSVEYQCQNLYQLEGNKRITCRNGQWSEPPKCLHPCVISREIMENYNIALRWTAKQKLYSRTGESVEFVCKRGYRLSSRSHTLRTTCWDGKLEYPTCAKRGGSGHHHHHH,58 % of the control,0.628
